The target of test [1] is human NKG2D, cell surface (human) (UniProt P26718). Kind of test: cell-based or functional assay.
For test [2], the target named is human Fc-NKG2D (human) (UniProt P26718). The test can be described thus: SPR (BIAcore 2000), human Fc-NKG2D immobilized on chip; bivalent IgG. (In general: SPR reads the build-up and loss of mass on a sensor chip optically.)
Test [3] has the same target. Kind of test: SPR (BIAcore 2000), human Fc-NKG2D immobilized on chip; bivalent binding (virtual affinity, avidity).

human Fc-NKG2D (human), sequence (P26718 78-216 limits assumed): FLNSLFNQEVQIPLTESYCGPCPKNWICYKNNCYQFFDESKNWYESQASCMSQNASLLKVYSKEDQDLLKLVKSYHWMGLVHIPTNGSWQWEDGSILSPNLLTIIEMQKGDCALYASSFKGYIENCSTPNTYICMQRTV
human NKG2D, cell surface (human), sequence (P26718 whole entry): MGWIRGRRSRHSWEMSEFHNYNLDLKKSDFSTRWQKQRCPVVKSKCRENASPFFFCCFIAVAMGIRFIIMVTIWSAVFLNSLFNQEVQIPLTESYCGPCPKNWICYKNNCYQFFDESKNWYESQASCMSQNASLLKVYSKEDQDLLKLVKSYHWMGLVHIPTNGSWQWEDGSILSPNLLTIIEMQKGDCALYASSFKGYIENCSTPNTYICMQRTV

A word on the koff: it is a measure of how fast the partners let go of each other. Low values mean slow dissociation, high ones fast dissociation. What is called kon is a measure of how fast the partners come together. High values mean fast association, low ones slow association. In test [1], “mouse anti-human NKG2D mAb 149810 (antibody)” showed a percentage of degranulated NK cells (CD56+ CD107a/CD107b+) among total NK cells (CD56+), immobilized antibody, Donor 1 of 13.6%; a percentage of degranulated NK cells (CD56+ CD107a/CD107b+) among total NK cells (CD56+), immobilized antibody, Donor 2 of 16.3%; a percentage of degranulated NK cells (CD56+ CD107a/CD107b+) among total NK cells (CD56+), immobilized antibody, Donor 3 of 24.3%; a percentage of degranulated NK cells (CD56+ CD107a/CD107b+) among total NK cells (CD56+), immobilized antibody, Donor 4 of 8.4%. In test [2], this substance had a koff of 5.1e-05 s⁻¹ and a kon of 140000 M⁻¹ s⁻¹. The Kd in test [3] worked out at 360 pM.
